In US20190227052A1 (published 2019):

Target: human NRP1 protein (human, UniProt O14786 22-856)
Assay: ELISA

Sequence of human NRP1 protein (O14786 22-856): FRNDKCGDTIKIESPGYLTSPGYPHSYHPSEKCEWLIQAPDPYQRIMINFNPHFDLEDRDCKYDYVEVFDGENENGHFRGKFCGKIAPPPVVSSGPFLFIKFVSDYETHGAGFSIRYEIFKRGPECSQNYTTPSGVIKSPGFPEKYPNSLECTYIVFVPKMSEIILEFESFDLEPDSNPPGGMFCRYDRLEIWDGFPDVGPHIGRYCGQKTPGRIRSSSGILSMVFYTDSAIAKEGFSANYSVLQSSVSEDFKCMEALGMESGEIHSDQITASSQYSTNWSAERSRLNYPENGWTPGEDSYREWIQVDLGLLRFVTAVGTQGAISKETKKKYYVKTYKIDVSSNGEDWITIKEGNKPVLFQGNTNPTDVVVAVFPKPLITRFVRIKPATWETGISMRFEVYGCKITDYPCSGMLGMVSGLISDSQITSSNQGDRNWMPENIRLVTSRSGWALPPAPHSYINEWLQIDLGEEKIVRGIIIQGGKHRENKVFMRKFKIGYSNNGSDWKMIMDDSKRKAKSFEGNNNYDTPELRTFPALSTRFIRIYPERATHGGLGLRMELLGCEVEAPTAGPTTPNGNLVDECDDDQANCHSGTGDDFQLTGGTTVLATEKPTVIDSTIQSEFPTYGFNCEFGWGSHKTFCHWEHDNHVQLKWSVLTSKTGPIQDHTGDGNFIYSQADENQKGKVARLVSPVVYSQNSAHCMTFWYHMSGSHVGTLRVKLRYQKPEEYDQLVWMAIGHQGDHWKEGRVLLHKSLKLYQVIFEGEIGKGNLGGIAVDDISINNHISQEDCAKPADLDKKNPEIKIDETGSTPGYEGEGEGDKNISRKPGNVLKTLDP

Row | Binder | Kd [nM]
1 | 1A03 anti-NRP1 IgG antibody (antibody, V domains shown) VH: EVQLLESGGGLVQFGGSLRLSQAASGFTFSSYYMSWVRQAFGKGLEWVSAISFGSSNKYYADSVQGRFTISRDNSKNTLYLQMNELRAEDTAVYYCARRKKSFDYWGQGTLVTVSS VL: QSVLTQFFSASGTPGQRVTISCSGFSSNIGNNDVSWYQQLFGTAPKLLIYSCNNRPSGVPDRFSGSKSGTSASLAISGLSSDEADYYCGAWVASLSAYVFGGGTKLTVTL | 1110
2 | IRCR-101 (3H10 converted into IgG format) (antibody, V domains shown) VH: EVQLLESGGGLVQFQQSLRLSQAASQFTFSSYYMSWVRQAFGKGLEWVSAISPGSSNKYYADSVKGRFTISRDNSKNTLYLQMNELRAEDTAVYYCARRKYMFDYWGQGTLVTVSS VL: GSVLTQPPSASGTPGQRVTISCTGESSNIGNNDVYWYQQLPGTAFKLLIYSQSNRSGMPDRFSGSKSGTSASLAISGLRSEDEADYYCASWDSSLSGYVFGGGTKLTVTL | 426
